Assay results taken from patent publication US11541107B2, “Peptides and T cells for use in immunotherapeutic treatment of various cancers” (Immatics Biotechnologies GmbH, priority 2015, dated 2023).

Assays:
HLA-A*02 = HLA-A*02 (Homo sapiens, UniProt P04439, D140Y/D185E/D98H/E176V/E277Q/G131W/G231S/I119V/I121R/I166T/I218V/L300P/N151K/N90K/P208A/P217A/Q86G/Q94H/R138H/R169H); experiment: MHC binding assay, UV-ligand exchange with beta2m ELISA, HLA-A*02; details: binding to HLA-A*02 ranged by peptide exchange yield (UV-ligand exchange, beta2m ELISA)
Source text: Candidate peptides for T cell based therapies according to the present invention were further tested for their MHC binding capacity (affinity). The individual peptide-MHC complexes were produced by UV-ligand exchange, where a UV-sensitive peptide is cleaved upon UV-irradiation, and exchanged with the peptide of interest as analyzed. Only peptide candidates that can effectively bind and stabilize the peptide-receptive MHC molecules prevent dissociation of the MHC complexes. To determine the yield of the exchange reaction, an ELISA was performed based on the detection of the light chain (ß2 m) of stabilized MHC complexes. The assay was performed as generally described in Rodenko et al. (Rodenko et al., 2006).
96 well MAXISorp plates (NUNC) were coated over night with 2 ug/ml streptavidin in PBS at room temperature, washed 4× and blocked for 1 h at 37° C. in 2% BSA containing blocking buffer. […] Peptide-MHC monomers of the UV-exchange reaction were diluted 100 fold in blocking buffer. Samples were incubated for 1 h at 37° C., washed four times, incubated with 2 ug/ml HRP conjugated anti-β2 m for 1h at 37° C., washed again and detected with TMB solution that is stopped with […]. Absorption was measured at 450 nm. Candidate peptides that show a high exchange yield (preferably higher than 50%, most preferred higher than 75%) are generally preferred for a generation and production of antibodies or fragments thereof, and/or T cell receptors or fragments thereof, as they show sufficient avidity to the MHC molecules and prevent dissociation of the MHC complexes.

HLA-A*24 = experiment: MHC binding assay, UV-ligand exchange with beta2m ELISA, HLA-A*24; design: species or system human; details: binding to HLA-A*24 ranged by peptide exchange yield (UV-ligand exchange, beta2m ELISA)
In short: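 Peptide–MHC complexes made by UV-ligand exchange of a UV-cleavable peptide. Exchange yield measured by ELISA: monomers diluted 100-fold on streptavidin-coated plates, 1 h at 37°C, detected with HRP anti-β2m (2 ug/ml) and TMB, absorbance at 450 nm.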

| Peptide exchange (HLA-A*02) | Peptide exchange (HLA-A*24) | Substance |
| --- | --- | --- |
| ++ (20%-49% = ++) |  | 60 (FLIDTSASM; listed as Homo sapiens) [compound 60] |
| +++ (50%-75% = +++) |  | 42 (VLSPFILTL; listed as Homo sapiens) [compound 42] |
| +++ (50%-75% = +++) |  | 66 (FITDFYTTV; listed as Homo sapiens) [compound 66] |
| ++ (20%-49% = ++) |  | 35 (YVLPKLYVKL; listed as Homo sapiens) [compound 35] |
| +++ (50%-75% = +++) |  | 27 (KVFGDLDQV; listed as Homo sapiens) [compound 27] |
| ++ (20%-49% = ++) |  | 329 (FAWEPSFRDQV; listed as Homo sapiens) [compound 329] |
| +++ (50%-75% = +++) |  | 331 (AIWKELISL; listed as Homo sapiens) [compound 331] |
| +++ (50%-75% = +++) |  | 321 (SLWFKPEEL; listed as Homo sapiens) [compound 321] |
| +++ (50%-75% = +++) |  | 69 (GIYDGILHSI; listed as Homo sapiens) [compound 69] |
| +++ (50%-75% = +++) |  | 37 (ALINDILGELVKL; listed as Homo sapiens) [compound 37] |
| +++ (50%-75% = +++) |  | 334 (GRADALRVL; listed as Homo sapiens) [compound 334] |
| +++ (50%-75% = +++) |  | 29 (TLCNKTFTA; listed as Homo sapiens) [compound 29] |
| +++ (50%-75% = +++) |  | 83 (ELLEYLPQL; listed as Homo sapiens) [compound 83] |
| +++ (50%-75% = +++) |  | 6 (FLDPAQRDL; listed as Homo sapiens) [compound 6] |
| +++ (50%-75% = +++) |  | 39 (ALMAVVSGL; listed as Homo sapiens) [compound 39] |
| +++ (50%-75% = +++) |  | 326 (SLLPLVWKI; listed as Homo sapiens) [compound 326] |
| +++ (50%-75% = +++) |  | 4 (ELAEIVFKV; listed as Homo sapiens) [compound 4] |
| +++ (50%-75% = +++) |  | 47 (GLYQAQVNL; listed as Homo sapiens) [compound 47] |
| +++ (50%-75% = +++) |  | 77 (IVLSTIASV; listed as Homo sapiens) [compound 77] |
| +++ (50%-75% = +++) |  | 41 (FVLPLVVTL; listed as Homo sapiens) [compound 41] |
| +++ (50%-75% = +++) |  | 70 (GLFSQHFNL; listed as Homo sapiens) [compound 70] |
| +++ (50%-75% = +++) |  | 88 (ILLNTEDLASL; listed as Homo sapiens) [compound 88] |
| ++ (20%-49% = ++) |  | 1 (PLWGKVFYL; listed as Homo sapiens) [compound 1] |
| +++ (50%-75% = +++) |  | 333 (GTFLEGVAK; listed as Homo sapiens) [compound 333] |

| Peptide exchange (HLA-A*02) | Peptide exchange (HLA-A*24) | Substance |
| --- | --- | --- |
| ++ (20%-49% = ++) |  | 58 (ALDDSLTSL; listed as Homo sapiens) [compound 58] |
| +++ (50%-75% = +++) |  | 93 (SLLTQPIFL; listed as Homo sapiens) [compound 93] |
| ++ (20%-49% = ++) |  | 61 (HLPDFVKQL; listed as Homo sapiens) [compound 61] |
| ++ (20%-49% = ++) |  | 340 (SVAKTILKR; listed as Homo sapiens) [compound 340] |
| ++ (20%-49% = ++) |  | 16 (HLYNNEEQV; listed as Homo sapiens) [compound 16] |
| ++ (20%-49% = ++) |  | 339 (VLGPGPPPL; listed as Homo sapiens) [compound 339] |
| ++ (20%-49% = ++) |  | 55 (IASAIVNEL; listed as Homo sapiens) [compound 55] |
| + (<20% = +) |  | 63 (TLSSERDFAL; listed as Homo sapiens) [compound 63] |
| +++ (50%-75% = +++) |  | 46 (SLAKHGIVAL; listed as Homo sapiens) [compound 46] |
| +++ (50%-75% = +++) |  | 327 (SIGDIFLKY; listed as Homo sapiens) [compound 327] |
| ++++ (>=75% = ++++) |  | 31 (ALSDETKNNWEV; listed as Homo sapiens) [compound 31] |
| +++ (50%-75% = +++) |  | 8 (KLGPFLLNA; listed as Homo sapiens) [compound 8] |
| +++ (50%-75% = +++) |  | 38 (KMQEDLVTL; listed as Homo sapiens) [compound 38] |
| ++ (20%-49% = ++) |  | 338 (LLYDGKLSSA; listed as Homo sapiens) [compound 338] |
| +++ (50%-75% = +++) |  | 78 (LLWGHPRVA; listed as Homo sapiens) [compound 78] |
| ++ (20%-49% = ++) |  | 10 (KTLDVFNIIL; listed as Homo sapiens) [compound 10] |
| +++ (50%-75% = +++) |  | 337 (KVLGKIEKV; listed as Homo sapiens) [compound 337] |
| ++ (20%-49% = ++) |  | 335 (VLLAAGPSAA; listed as Homo sapiens) [compound 335] |
| ++ (20%-49% = ++) |  | 14 (LLDHLSFINKI; listed as Homo sapiens) [compound 14] |
| ++ (20%-49% = ++) |  | 74 (ILDETLENV; listed as Homo sapiens) [compound 74] |
| ++ (20%-49% = ++) |  | 44 (GLLWQIIKV; listed as Homo sapiens) [compound 44] |
| ++++ (>=75% = ++++) |  | 324 (AIFDFCPSV; listed as Homo sapiens) [compound 324] |
| +++ (50%-75% = +++) |  | 65 (KLDGICWQV; listed as Homo sapiens) [compound 65] |
| ++ (20%-49% = ++) |  | 12 (GLIYEETRGV; listed as Homo sapiens) [compound 12] |

| Peptide exchange (HLA-A*02) | Peptide exchange (HLA-A*24) | Substance |
| --- | --- | --- |
| ++ (20%-49% = ++) |  | 325 (RLLPKVQEV; listed as Homo sapiens) [compound 325] |
| +++ (50%-75% = +++) |  | 59 (ALTKILAEL; listed as Homo sapiens) [compound 59] |
| +++ (50%-75% = +++) |  | 89 (YLVAHNLLL; listed as Homo sapiens) [compound 89] |
|  | ++++ (>=75% = ++++) | 275 (KYGTLDVTF; listed as Homo sapiens) [compound 275] |
|  | +++ (50%-75% = +++) | 195 (AYIKGGWIL; listed as Homo sapiens) [compound 195] |
|  | + (<20% = +) | 124 (TYKDYVDLF; listed as Homo sapiens) [compound 124] |
|  | +++ (50%-75% = +++) | 145 (VYALKVRTI; listed as Homo sapiens) [compound 145] |
|  | +++ (50%-75% = +++) | 294 (RFPVQGTVTF; listed as Homo sapiens) [compound 294] |
|  | +++ (50%-75% = +++) | 122 (EYQARIPEF; listed as Homo sapiens) [compound 122] |
|  | ++++ (>=75% = ++++) | 184 (IYSVGAFENF; listed as Homo sapiens) [compound 184] |
|  | +++ (50%-75% = +++) | 382 (AYLPPLQQVF; listed as Homo sapiens) [compound 382] |
|  | +++ (50%-75% = +++) | 376 (VYTPVASRQSL; listed as Homo sapiens) [compound 376] |
|  | +++ (50%-75% = +++) | 308 (TFDGHGVFF; listed as Homo sapiens) [compound 308] |
|  | +++ (50%-75% = +++) | 239 (VYAIFRILL; listed as Homo sapiens) [compound 239] |
|  | +++ (50%-75% = +++) | 205 (VYPVVLNQI; listed as Homo sapiens) [compound 205] |
|  | +++ (50%-75% = +++) | 193 (LYLENNAQTQF; listed as Homo sapiens) [compound 193] |
|  | ++++ (>=75% = ++++) | 289 (FFHEGQYVF; listed as Homo sapiens) [compound 289] |
|  | ++++ (>=75% = ++++) | 262 (VYSSQFETI; listed as Homo sapiens) [compound 262] |
|  | ++++ (>=75% = ++++) | 97 (TYTFLKETF; listed as Homo sapiens) [compound 97] |
|  | ++++ (>=75% = ++++) | 271 (RFLMKSYSF; listed as Homo sapiens) [compound 271] |
|  | ++++ (>=75% = ++++) | 154 (VYGVPTPHF; listed as Homo sapiens) [compound 154] |
|  | +++ (50%-75% = +++) | 141 (SYNGHLTIWF; listed as Homo sapiens) [compound 141] |
